Laboratory results from patent US5719021A, “Protein activation” (University of Medicine and Dentistry of New Jersey, dated 1998).
Where two headings read alike, the source gives them in different places.

Assays:
[1] = biological target: T1, subtilisin E (Bacillus subtilis, UniProt P04189); experiment: Competitive inhibition of subtilisin E by synthetic pro-peptides; format: biochemical; settings: competitive inhibitor
T1 construct: 77 residues for the amino-terminal pro-peptide plus 275 residues for the mature subtilisin; made in house
T1 sequence (P04189 107-381): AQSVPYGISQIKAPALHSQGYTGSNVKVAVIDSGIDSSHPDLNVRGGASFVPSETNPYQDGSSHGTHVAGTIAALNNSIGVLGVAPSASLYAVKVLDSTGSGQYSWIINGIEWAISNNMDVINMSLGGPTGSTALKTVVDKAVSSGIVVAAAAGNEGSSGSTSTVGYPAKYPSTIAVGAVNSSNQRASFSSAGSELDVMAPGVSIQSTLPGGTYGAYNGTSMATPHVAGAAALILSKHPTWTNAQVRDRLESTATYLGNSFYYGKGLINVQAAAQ
Description: 5. The synthetic pro-peptide is able to specifically bind to the active center of subtilisin.

[2] = biological target: T2, denatured subtilisin E (Bacillus subtilis, UniProt P04189); experiment: Renaturation (intermolecular refolding) of denatured subtilisin E with exogenously added pro-peptide; format: biochemical
T2 construct: 77 residues for the amino-terminal pro-peptide plus 275 residues for the mature subtilisin; made in house
T2 sequence (P04189 107-381): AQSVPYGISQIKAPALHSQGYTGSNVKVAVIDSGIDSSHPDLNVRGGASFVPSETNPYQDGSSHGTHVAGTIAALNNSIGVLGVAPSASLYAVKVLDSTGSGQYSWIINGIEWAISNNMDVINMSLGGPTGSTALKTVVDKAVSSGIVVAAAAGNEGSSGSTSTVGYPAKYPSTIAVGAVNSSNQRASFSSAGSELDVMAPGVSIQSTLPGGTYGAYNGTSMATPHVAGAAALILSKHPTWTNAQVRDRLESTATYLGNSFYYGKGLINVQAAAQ
Description: The studies established that denatured subtilisin (without the pro-peptide)cannot be renatured to active subtilisin.
The pro-peptide of 77 residues for subtilisin E (see FIG. 1) was synthesized.
(§1) Other synthetic activating sequences were reacted with a selected polypeptide, in this case subtilisin, as described by Ohta et al. in Molecular Microbiology, 5(6), 1507-1510 (1991), which is incorporated herein by reference (and cofiled herewith). Active subtilisin was obtained.
(§2) The concentration of the activating peptide is preferably in a molar ratio of one of the activating protein to the polypeptide to be activated. At higher and lower concentration than 1 to 1, the renaturation yield was not as high; when the ratio exceeded 1, inhibition was observed. The activating peptide appears to act an inhibitor of the activated polypeptide.
(§3) Different concentrations of the different synthetic peptides were used a shown in the above-cited reference. The mixture of synthetic and polypeptide was dialyzed against 10 mM sodium phosphate, pH 7.0, that also contained 0.5M (NH4)2 SO4, 2 mM CaCl2 and 10 μm of 3,5-bis-trifluoromethylbenzeneboronic acid (BTFBA), a serine protease inhibitor.

[3] = biological target: T3, pro-subtilisin E (Bacillus subtilis, UniProt P04189); experiment: In vitro processing of denatured pro-subtilisin to active subtilisin by dialysis; format: biochemical; settings: for Processing/conversion to active mature subtilisin: in vitro dialysis, e.g. 0.2M sodium phosphate pH 6.2
T3 construct: Pro-subtilisin consists of 352 amino acid residues; 77 residues for the amino-terminal pro-peptide plus 275 residues for the mature subtilisin; E. coli OmpA signal peptide (N); made in house; host or cells: E. coli (inclusion bodies)
T3 sequence (P04189 30-381 limits assumed): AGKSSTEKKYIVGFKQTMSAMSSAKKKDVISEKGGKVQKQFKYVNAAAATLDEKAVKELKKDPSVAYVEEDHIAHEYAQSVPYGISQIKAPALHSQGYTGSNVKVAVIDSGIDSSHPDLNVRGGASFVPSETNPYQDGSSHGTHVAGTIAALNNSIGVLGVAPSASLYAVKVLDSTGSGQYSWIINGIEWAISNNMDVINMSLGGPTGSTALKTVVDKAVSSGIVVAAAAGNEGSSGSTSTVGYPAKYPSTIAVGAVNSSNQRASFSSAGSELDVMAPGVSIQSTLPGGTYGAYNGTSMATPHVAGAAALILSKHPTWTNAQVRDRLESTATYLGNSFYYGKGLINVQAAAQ
Description: Pro-subtilisin thus produced was solubilized in 6M guanidine-HCl and purified to homogeneity in the presence of 5M urea.
Its N-terminal amino acid sequence and the mobility in SDS-polyacrylamide gel electrophoresis were identical to those of authentic subtilisin.
It is interesting to note that the processing reaction to active subtilisin was independent of the pro-subtilisin concentration. Thus, the conversion is a first-order reaction.
The pro-subtilisin was in solution in a denaturant like guanidine-HCl or urea to prevent autoprocesssing to active subtitisin. For best results, the work was carried out with urea.
The method for activating the polypeptide comprises contacting it with the selected activating peptide. For pro-subtilisin E the efficiency of the conversion to active subtilisin E is independent of the pro-subtilisin concentration, indicating a first order reaction. The reaction is carried out in an appropriate buffer medium. […] At higher concentration, the ammonium sulfate appears to inhibit the proper folding of the polypeptide. When sulfate is used as the anion, there may be used as cations Na^+, K^+, and Li^+ or NH4^+ and equivalent others. Most efficient processing was obtained with 0.5M (NH4)2 SO4 in a 10 mM Tri-HCl buffer (at pH7.0), containing 1 mM CaCl2. Under these conditions, 1 mg of pro-subtilisin produced 89 U of subtilisin activity.

[4] = biological target: T4, subtilisin E (Bacillus subtilis); experiment: competitive inhibition of enzyme activity
T4 chain: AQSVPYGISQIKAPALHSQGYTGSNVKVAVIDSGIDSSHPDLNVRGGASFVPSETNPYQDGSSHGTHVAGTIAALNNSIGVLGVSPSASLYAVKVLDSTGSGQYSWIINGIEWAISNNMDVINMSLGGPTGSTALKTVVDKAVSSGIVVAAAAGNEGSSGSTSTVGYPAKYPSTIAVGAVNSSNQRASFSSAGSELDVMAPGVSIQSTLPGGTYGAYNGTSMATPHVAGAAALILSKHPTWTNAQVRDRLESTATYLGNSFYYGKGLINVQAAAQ

[5] = biological target: T5, denatured subtilisin BPN' (Bacillus amyloliquefaciens, UniProt P00782); experiment: Renaturation of denatured subtilisin BPN' with exogenously added pro-peptide; format: biochemical; settings: for Efficiency of renaturation of denatured subtilisin BPN' relative to the pro-77-mer: relative to pro-77-mer
T5 sequence (P00782 108-382): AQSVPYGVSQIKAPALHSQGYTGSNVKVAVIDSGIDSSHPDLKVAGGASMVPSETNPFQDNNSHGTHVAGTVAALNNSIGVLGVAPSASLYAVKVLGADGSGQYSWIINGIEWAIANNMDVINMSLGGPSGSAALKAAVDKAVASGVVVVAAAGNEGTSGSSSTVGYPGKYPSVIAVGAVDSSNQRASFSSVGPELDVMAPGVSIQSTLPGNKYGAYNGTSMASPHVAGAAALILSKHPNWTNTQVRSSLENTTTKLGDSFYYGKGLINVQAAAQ
Description: Similarly, pro-peptides corresponding to -1 to -77, -1 to -68 and -1 to -63 for subtilisin BPN' were synthesized (See FIG. 1).
as §1, §2, §3

[6] = biological target: T6, subtilisin BPN' (Bacillus amyloliquefaciens); experiment: competitive inhibition of enzyme activity
T6 chain: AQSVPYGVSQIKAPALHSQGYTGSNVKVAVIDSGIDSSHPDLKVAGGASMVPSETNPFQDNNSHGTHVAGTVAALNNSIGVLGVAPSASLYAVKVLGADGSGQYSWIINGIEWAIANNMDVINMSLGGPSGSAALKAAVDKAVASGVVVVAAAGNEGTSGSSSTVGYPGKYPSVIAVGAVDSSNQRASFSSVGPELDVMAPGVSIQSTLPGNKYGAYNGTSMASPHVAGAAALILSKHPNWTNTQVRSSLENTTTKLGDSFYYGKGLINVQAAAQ

[7] = biological target: T7, subtilisin Carlsberg (Bacillus licheniformis, UniProt P00780); experiment: Renaturation of acid-denatured subtilisin Carlsberg with exogenously added pro-peptide; format: biochemical
T7 construct: denatured subtilisin (without the pro-peptide)cannot be renatured to active subtilisin
Description: This pro-peptide variant was effective even though there are quite a number of amino acid substitutions in both subtilisins BPN' and Carlsberg when compared with subtilisin E (See FIG. 1).

synthetic pro-peptide of -1 to -77 for subtilisin E: synthesized pro-peptide of 77 residues (-1 to -77) for subtilisin E
Ki ([1]; listed as synthetic pro-peptide): 540 nM
Ki ([1]; read-out: Ki as competitive inhibitor of subtilisin E): ≤ 540 nM
Refolding/renaturation of denatured subtilisin E to active enzyme [2]: able to intermolecularly complement the refolding

O=S(=O)(F)Cc1ccccc1 [phenylmethanesulfonyl fluoride, reference compound]
Inhibition of the processing of pro-subtilisin to active subtilisin [3]: unable to inhibit

B1: processed subtilisin: active subtilisin obtained by in vitro processing of pro-subtilisin E (protein, UniProt P04189 107-381, looked up)
Subtilisin E: AQSVPYGISQIKAPALHSQGYTGSNVKVAVIDSGIDSSHPDLNVRGGASFVPSETNPYQDGSSHGTHVAGTIAALNNSIGVLGVAPSASLYAVKVLDSTGSGQYSWIINGIEWAISNNMDVINMSLGGPTGSTALKTVVDKAVSSGIVVAAAAGNEGSSGSTSTVGYPAKYPSTIAVGAVNSSNQRASFSSAGSELDVMAPGVSIQSTLPGGTYGAYNGTSMATPHVAGAAALILSKHPTWTNAQVRDRLESTATYLGNSFYYGKGLINVQAAAQ
Specific activity of processed subtilisin relative to authentic subtilisin E [3]: approximately half

B2: synthetic pro-peptide of -1 to -77 for subtilisin E (peptide)
peptide: AGKSSTEKKYIVGFKQTMSAMSSAKKKDVISEKGGKVQKQFKYVNAAAATLDEKAVKELKKDPSVAYVEEDHIAHEY
modifications: not checked
Ki [4]: < 540 nM

B3: pro-77-mer (from -1 to -77) for subtilisin BPN' (peptide)
peptide: AGKSNGEKKYIVGFKQTMSTMSAAKKKDVISEKGGKVQKQFKYVDAASATLNEKAVKELKKDPSVAYVEEDHVAHAY
Effectiveness for the renaturation of denatured subtilisin BPN' [5]: most effective
Ki [6]: 380 nM

B4: pro-subtilisin E: pro-subtilisin produced in E. coli as inclusion bodies, solubilized in 6M guanidine-HCl and purified in 5M urea (protein)
chain: AGKSSTEKKYIVGFKQTMSAMSSAKKKDVISEKGGKVQKQFKYVNAAAATLDEKAVKELKKDPSVAYVEEDHIAHEYAQSVPYGISQIKAPALHSQGYTGSNVKVAVIDSGIDSSHPDLNVRGGASFVPSETNPYQDGSSHGTHVAGTIAALNNSIGVLGVSPSASLYAVKVLDSTGSGQYSWIINGIEWAISNNMDVINMSLGGPTGSTALKTVVDKAVSSGIVVAAAAGNEGSSGSTSTVGYPAKYPSTIAVGAVNSSNQRASFSSAGSELDVMAPGVSIQSTLPGGTYGAYNGTSMATPHVAGAAALILSKHPTWTNAQVRDRLESTATYLGNSFYYGKGLINVQAAAQ
Subtilisin activity produced from 1 mg of pro-subtilisin ([3]; 0.5M (NH4)2SO4 in 10 mM Tris-HCl pH 7.0, 1 mM CaCl2): 89 U
Conversion efficiency of pro-subtilisin to active subtilisin ([3]; calculated from 89 U versus 470 U): approximately 20%
Theoretical maximum activity for 1 mg of pro-subtilisin E ([3]; estimated): 470 U
Processing/conversion to active mature subtilisin [3]: converted to active subtilisin

B5: pro-subtilisin E with the Asp32 to Asn active site mutation: pro-subtilisin E with active site mutation Asp32 to Asn, used as exogenous pro-peptide source (protein, UniProt P04189 30-381, looked up, variant D32N)
pro-form: AGKSSTEKKYIVGFKQTMSAMSSAKKKDVISEKGGKVQKQFKYVNAAAATLDEKAVKELKKDPSVAYVEEDHIAHEYAQSVPYGISQIKAPALHSQGYTGSNVKVAVINSGIDSSHPDLNVRGGASFVPSETNPYQDGSSHGTHVAGTIAALNNSIGVLGVAPSASLYAVKVLDSTGSGQYSWIINGIEWAISNNMDVINMSLGGPTGSTALKTVVDKAVSSGIVVAAAAGNEGSSGSTSTVGYPAKYPSTIAVGAVNSSNQRASFSSAGSELDVMAPGVSIQSTLPGGTYGAYNGTSMATPHVAGAAALILSKHPTWTNAQVRDRLESTATYLGNSFYYGKGLINVQAAAQ
modifications: pro-form
Processing/conversion to active mature subtilisin ([3]; listed as pro-subtilisin with an active site mutation (Asp32 to Asn)): cannot be autoprocessed
Processing/conversion to active mature subtilisin ([3]; listed as pro-subtilisin with an active-site mutation (aspartic acid at position 32 to asp)): unable to be processed
Renaturation of acid-denatured subtilisin Carlsberg [7]: able to renature
Renaturation of acid-denatured subtilisin BPN' ([5]; acid-denatured): able to renature
Refolding/renaturation of denatured subtilisin E to active enzyme [2]: active subtilisin is formed

B6: pro-68-mer (from -1 to -68) for subtilisin BPN' (peptide)
peptide: YIVGFKQTMSTMSAAKKKDVISEKGGKVQKQFKYVDAASATLNEKAVKELKKDPSVAYVEEDHVAHAY
Efficiency of renaturation of denatured subtilisin BPN' relative to the pro-77-mer [5]: 30-40%
Ki [6]: 760 nM

B7: pro-63-mer (from -1 to -63) for subtilisin BPN' (peptide)
peptide: KQTMSTMSAAKKKDVISEKGGKVQKQFKYVDAASATLNEKAVKELKKDPSVAYVEEDHVAHAY
Efficiency of renaturation of denatured subtilisin BPN' relative to the pro-77-mer [5]: 30-40%
Ki [6]: 790 nM

B8: Streptomyces subtilisin inhibitor: inhibitor tested on processing of pro-subtilisin to active subtilisin (protein)
chain: DAPSALYAPSALVLTVGKGVSATTAAPERAVTLTCAPGPSGTHPAAGSACADLAAVGGDLNALTRGEDVMCPMVYDPVLLTVDGVWQGKRVSYERVFSNECEMNAHGSSVFAF
Inhibition of the processing of pro-subtilisin to active subtilisin [3]: unable to inhibit
